Measurements as given in patent publication US20030235860A1, “Interactions between AR, ER, TR2, and TR4” (priority 1999, published 2003).

T1: PR (Homo sapiens, UniProt P06401)
T1 construct: expressed in transfected cells; host or cells: H1299 (pSG5-PR)
T1 sequence (P06401 1-933): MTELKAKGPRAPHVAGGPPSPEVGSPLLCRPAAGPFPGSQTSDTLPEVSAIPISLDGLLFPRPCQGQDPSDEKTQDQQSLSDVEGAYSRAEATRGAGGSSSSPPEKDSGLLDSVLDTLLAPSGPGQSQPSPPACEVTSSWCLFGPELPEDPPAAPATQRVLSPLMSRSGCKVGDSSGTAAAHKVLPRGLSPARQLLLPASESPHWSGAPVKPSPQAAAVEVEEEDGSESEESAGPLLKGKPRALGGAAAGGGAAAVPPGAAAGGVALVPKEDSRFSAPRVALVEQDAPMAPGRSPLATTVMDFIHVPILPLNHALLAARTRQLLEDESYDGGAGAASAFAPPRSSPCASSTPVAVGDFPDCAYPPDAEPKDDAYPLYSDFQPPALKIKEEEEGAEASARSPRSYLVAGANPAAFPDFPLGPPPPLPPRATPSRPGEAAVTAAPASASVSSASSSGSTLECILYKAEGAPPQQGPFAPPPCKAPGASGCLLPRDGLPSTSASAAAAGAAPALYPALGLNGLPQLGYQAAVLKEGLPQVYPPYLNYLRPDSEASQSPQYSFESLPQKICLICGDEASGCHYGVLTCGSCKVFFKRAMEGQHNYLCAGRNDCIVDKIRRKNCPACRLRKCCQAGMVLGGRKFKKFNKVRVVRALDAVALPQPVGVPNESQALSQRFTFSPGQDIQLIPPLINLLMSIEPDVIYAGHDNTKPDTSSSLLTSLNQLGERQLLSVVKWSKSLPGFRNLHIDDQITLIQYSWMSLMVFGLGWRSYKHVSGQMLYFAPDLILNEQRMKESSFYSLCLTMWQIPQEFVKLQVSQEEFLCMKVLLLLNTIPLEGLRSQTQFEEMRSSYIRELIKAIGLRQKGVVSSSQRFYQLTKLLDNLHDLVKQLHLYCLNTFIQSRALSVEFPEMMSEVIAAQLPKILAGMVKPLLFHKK

T2: GR (Homo sapiens, UniProt P04150)
T2 construct: expressed in transfected cells; host or cells: H1299, PC-3 (pSG5-GR)
T2 sequence (P04150 1-777): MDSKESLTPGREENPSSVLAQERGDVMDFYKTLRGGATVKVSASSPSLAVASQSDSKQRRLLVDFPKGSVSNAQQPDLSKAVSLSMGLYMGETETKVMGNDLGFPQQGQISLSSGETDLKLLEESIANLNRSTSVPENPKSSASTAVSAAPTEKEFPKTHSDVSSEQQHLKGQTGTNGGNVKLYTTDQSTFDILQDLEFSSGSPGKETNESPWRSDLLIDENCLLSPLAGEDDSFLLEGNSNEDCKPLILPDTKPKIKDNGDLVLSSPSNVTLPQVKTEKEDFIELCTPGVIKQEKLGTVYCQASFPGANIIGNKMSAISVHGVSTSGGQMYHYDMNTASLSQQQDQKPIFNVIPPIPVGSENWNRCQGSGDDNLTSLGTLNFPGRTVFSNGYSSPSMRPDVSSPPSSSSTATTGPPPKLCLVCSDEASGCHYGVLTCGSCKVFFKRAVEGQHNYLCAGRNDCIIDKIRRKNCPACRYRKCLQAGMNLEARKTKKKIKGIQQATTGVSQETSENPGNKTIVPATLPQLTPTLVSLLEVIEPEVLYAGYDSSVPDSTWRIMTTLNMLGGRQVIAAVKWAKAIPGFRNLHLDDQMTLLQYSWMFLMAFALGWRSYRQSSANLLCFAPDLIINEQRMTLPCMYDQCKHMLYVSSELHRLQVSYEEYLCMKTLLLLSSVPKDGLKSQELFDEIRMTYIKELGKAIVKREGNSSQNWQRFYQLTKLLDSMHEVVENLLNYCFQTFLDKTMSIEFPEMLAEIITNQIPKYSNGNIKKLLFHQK


How the values were obtained:
Format in all cases: cell-based
PR = molecular target: T1, PR; assay: PR-mediated transactivation (MMTV reporter)
GR = molecular target: T2, GR; assay: GR-mediated transactivation (MMTV reporter)
Procedure: To eliminate the potential artificial effects caused by overexpression of exogenous ER, T47D cells were used as a model to test the TR2 suppression effect on the endogenous ER-mediated transactivation. T47D cells were transfected with 1 μg of ERE-CAT reporter plasmid together with increasing amounts of the TR2 expression plasmid. […] All of the cells also were transfected with a galactosidase expression plasmid, pCMV-β-gal to normalize the transfection efficiency. As expected, the TR2 can still repress the endogenous ER-mediated ERE-CAT activity (FIG. 8B). For a control, the potential suppression effect of the TR2 on other steroid receptors-mediated transactivation was also tested, such as PR or GR. H1299 cells were co-transfected with 1 μg of MMTV-CAT reporter plasmid and 1 μg of PR or GR expression plasmid together with increasing amounts of the TR2 expression vector. […] AU of the cells also were transfected with a β-galactosidase expression plasmid, pCMV-β-gal to normalize the transfection efficiency.
AR is known to be highly involved in prostate cancer progression, and both TR2 and AR are expressed in prostate cancer, therefore the TR2 effect on AR transactivation activity was analyzed.

cyclin D1 = assay: Western blot of cyclin D1 in MCF-7-TR4 cells; details: 10 nM E2, Dox
Procedure: MCF-7-TR4 or MCF-7-pBIG cells were cultured in DMEM containing 10% charcoal dextran-treated FBS for 3 days and then 1×10^6 cells were seeded on 100-mm dishes. […] The lysate protein amount was quantitated by Bradford assay (Bio-Rad, Hercules, Calif.) with bovine serum albumin as a reference standard. One hundred μg protein was loaded and after electrophoresis on 10% SDS-PAGE was transferred onto Immobulin (Milipore, Bedford, Mass.). The membrane was blotted with anti-cyclin D1 rabbit polyclonal Ab (H-295) (Santa Cruz). Alkaline phosphatase conjugated secondary Ab was used.

Row | PR-mediated MMTV-LUC reporter activity (PR; H1299 cells, 10 nM progesterone, increasing TR4) | Molecule | PR-mediated transactivation (MMTV-CAT) (PR; H1299 cells, 10^−8 M progesterone, increasing TR2) | PR-mediated transcription (MMTV-CAT) (PR; T47D cells, Example 2) | GR-mediated transactivation (MMTV-CAT) (GR; H1299 cells, 10^−8 M glucocorticoid, increasing TR2) | GR-mediated transactivation (MMTV-CAT) (GR; PC-3 cells, 10 nM dexamethasone, pCMV-TR2) | GR-mediated transcription (MMTV-CAT) (GR; T47D cells, Example 2) | Cyclin D1 expression (cyclin D1)
1 | – | TR2: human testicular orphan nuclear receptor 2, 603 amino acids (protein, UniProt P13056 1-603, looked up, full-length, human testicular orphan nuclear receptor 2, 603 amino acids) MATIEEIAHQIIEQQMGEIVTEQQTGQKIQIVTALDHNTQGKQFILTNHDGSTPSKVILARQDSTPGKVFLTTPDAAGVNQLFFTTPDLSAQHLQLLTDNSPDQGPNKVFDLCVVCGDKASGRHYGAVTCEGCKGFFKRSIRKNLVYSCRGSKDCIINKHHRNRCQYCRLQRCIAFGMKQDSVQCERKPIEVSREKSSNCAASTEKIYIRKDLRSPLTATPTFVTDSESTRSTGLLDSGMFMNIHPSGVKTESAVLMTSDKAESCQGDLSTLANVVTSLANLGKTKDLSQNSNEMSMIESLSNDDTSLCEFQEMQTNGDVSRAFDTLAKALNPGESTACQSSVAGMEGSVHLITGDSSINYTEKEGPLLSDSHVAFRLTMPSPMPEYLNVHYIGESASRLLFLSMHWALSIPSFQALGQENSISLVKAYWNELFTLGLAQCWQVMNVATILATFVNCLHNSLQQDKMSTERRKLLMEHIFKLQEFCNSMVKLCIDGYEYAYLKAIVLFSPDHPSLENMEQIEKFQEKAYVEFQDYITKTYPDDTYRLSRLLLRLPALRLMNATITEELFFKGLIGNIRIDSVIPHILKMEPADYNSQIIGHSI | little effect | marginal effect | little effect | less suppression effect | marginal effect | –
2 | failed to suppress | TR4: human testicular orphan nuclear receptor 4, SEQ ID NO:16; expressed from plasmid or in vitro translated (protein) MTSPSPRIQIISTDSAVASPQRIQGSEPASGPLSVFTSLNKEKIVTDQQTGQKIQIVTAVDASGSPKQQFILTSPDGAGTGKVILASPETSSAKQLIFTTSDNLVPGRIQIVTDSASVERLLGKTDVQRPQVVEYCVVCGDKASGRHYGAVSCEGCKGFFKRSVRKNLTYSCRSSQDCIINKHHRNRCQFCRLKKCLEMGMKMESVQSERKPFDVQREKPSNCAASTEKIYIRKDLRSPLIATPTFVADKDGARQTGLLDPGMLVNIQQPLIREDGTVLLATDSKAETSQGALGTLANVVTSLANLSESLNNGDTSEIQPEDQSASEITRAFDTLAKALNTTDSSSSPSLADGIDTSGGGSIHVISRDQSTPIIEVEGPLLSDTHVTFKLTMPSPMPEYLNVHYICESASRLLFLSMHRARSIPAFQGLGQDCNTSLVRACWNELFTLGLAQCAQVMSLSTILAAIVNHLQNSIQEDKLSGDRIKQVMEHIWKLQEFCNSMANWDIDGYEYAYLKAIVLFSPDHPGLTSTSQIEKFQEKAQMELQDYVQKTYSEDTYRLARILVRLPALRLMSSNITEELFFTGLIGNVSIDSIIPYILKMETAEYNGQITGVSL | – | – | – | – | – | suppress
